Source: US20260184774A1 (GENOME, published 2026)

Columns and labels:
Test in all cases: ELISA, coated CNTN4 domain sample, anti-human IgG Fc-HRP
[1] = molecular target: T1, Human CNTN4 domain sample Full (Domain 1 to Domain 10) (human, UniProt Q8IWV2 19-1000, limits assumed)
T1 construct: domain: Domain 1 to Domain 10 (Ig1 to Ig6 and FN1 to FN4)
T1 sequence (looked up): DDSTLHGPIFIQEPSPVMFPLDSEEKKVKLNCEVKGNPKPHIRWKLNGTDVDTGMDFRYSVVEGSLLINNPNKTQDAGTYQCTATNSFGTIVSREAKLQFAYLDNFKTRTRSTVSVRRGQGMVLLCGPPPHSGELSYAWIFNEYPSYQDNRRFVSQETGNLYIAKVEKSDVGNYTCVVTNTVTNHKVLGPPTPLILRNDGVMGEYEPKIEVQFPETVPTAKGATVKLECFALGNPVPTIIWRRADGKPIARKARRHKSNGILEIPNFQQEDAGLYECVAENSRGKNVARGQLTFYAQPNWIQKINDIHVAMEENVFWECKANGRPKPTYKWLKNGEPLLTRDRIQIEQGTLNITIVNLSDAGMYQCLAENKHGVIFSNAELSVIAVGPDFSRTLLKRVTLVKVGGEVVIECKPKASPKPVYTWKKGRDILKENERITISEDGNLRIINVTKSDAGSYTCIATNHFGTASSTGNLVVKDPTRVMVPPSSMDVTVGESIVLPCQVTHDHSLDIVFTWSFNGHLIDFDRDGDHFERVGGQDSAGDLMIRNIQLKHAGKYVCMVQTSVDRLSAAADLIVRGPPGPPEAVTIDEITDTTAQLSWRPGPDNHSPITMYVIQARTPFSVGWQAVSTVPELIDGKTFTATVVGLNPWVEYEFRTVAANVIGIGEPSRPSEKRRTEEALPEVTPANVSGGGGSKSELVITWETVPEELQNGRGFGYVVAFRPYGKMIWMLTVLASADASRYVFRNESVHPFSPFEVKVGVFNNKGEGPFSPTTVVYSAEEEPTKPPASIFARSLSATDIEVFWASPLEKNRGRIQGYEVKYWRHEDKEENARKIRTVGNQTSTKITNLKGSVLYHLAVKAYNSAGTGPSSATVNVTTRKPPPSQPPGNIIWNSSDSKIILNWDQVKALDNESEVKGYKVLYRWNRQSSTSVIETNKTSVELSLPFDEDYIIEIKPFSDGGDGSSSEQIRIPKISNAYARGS
Protocol: (§1) 50 μL of the diluted secondary antibody (Anti-human IgG Fc-HRP) was distributed to each well. The wells were sealed with sealing tape and incubated at 37° C. for 1 hour. The wells were washed tree times after Sealing tape was removed.
(§2) 50 μL of ABTs were distributed in each well. The wells were incubated at room temperature for 30 minutes. The absorbance was detected at 405 nm by using Microplate reader.

[2] = molecular target: T2, Human CNTN4 domain sample D1-4 (human, UniProt Q8IWV2 19-400, limits assumed)
T2 construct: domain: Domain 1 to Domain 4
T2 sequence (looked up): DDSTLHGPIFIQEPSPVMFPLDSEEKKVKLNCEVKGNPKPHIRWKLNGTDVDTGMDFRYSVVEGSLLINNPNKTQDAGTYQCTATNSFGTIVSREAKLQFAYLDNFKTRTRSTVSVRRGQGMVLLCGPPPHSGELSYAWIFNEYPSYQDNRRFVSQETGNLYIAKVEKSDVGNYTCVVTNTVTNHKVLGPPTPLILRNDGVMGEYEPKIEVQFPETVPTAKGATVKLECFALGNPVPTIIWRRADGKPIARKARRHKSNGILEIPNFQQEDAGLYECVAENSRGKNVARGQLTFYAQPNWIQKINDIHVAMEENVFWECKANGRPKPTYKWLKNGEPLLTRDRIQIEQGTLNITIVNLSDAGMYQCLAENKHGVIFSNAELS
Protocol: as §1, §2

[3] = molecular target: T3, Human CNTN4 domain sample D1-5 (human, UniProt Q8IWV2 19-493, limits assumed)
T3 construct: domain: Domain 1 to Domain 5
T3 sequence (looked up): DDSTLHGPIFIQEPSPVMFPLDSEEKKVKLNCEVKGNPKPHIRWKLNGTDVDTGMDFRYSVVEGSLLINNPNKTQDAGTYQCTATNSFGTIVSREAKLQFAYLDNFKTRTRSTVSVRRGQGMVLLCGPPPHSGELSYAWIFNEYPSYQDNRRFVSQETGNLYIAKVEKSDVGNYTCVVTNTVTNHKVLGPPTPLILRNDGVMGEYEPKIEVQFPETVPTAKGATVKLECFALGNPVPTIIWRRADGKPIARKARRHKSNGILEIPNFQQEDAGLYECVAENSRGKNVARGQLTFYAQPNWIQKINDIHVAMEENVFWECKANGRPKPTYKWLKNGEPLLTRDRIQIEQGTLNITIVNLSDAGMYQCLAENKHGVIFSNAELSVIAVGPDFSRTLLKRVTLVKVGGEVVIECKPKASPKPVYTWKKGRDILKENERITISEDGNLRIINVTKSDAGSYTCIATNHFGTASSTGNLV
Protocol: as §1, §2

[4] = molecular target: T4, Human CNTN4 domain sample D1-6 (human, UniProt Q8IWV2 19-586, limits assumed)
T4 construct: domain: Domain 1 to Domain 6
T4 sequence (looked up): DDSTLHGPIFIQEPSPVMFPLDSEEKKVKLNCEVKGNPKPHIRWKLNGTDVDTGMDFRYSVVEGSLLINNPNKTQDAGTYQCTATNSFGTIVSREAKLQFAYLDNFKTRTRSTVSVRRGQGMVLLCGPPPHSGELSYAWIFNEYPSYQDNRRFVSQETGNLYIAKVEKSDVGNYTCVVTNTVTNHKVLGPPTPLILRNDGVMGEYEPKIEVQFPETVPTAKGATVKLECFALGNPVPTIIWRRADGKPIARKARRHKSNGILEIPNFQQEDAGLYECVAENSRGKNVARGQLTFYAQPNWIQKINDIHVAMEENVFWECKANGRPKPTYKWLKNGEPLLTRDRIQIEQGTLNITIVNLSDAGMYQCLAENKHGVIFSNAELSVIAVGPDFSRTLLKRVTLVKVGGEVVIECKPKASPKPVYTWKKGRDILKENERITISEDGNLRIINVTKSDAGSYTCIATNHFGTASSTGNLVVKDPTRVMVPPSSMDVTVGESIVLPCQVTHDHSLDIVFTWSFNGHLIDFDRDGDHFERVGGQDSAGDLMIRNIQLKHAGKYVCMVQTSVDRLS
Protocol: as §1, §2

[5] = molecular target: T5, Human CNTN4 domain sample D1-7 (human, UniProt Q8IWV2 19-697, limits assumed)
T5 construct: domain: Domain 1 to Domain 7
T5 sequence (looked up): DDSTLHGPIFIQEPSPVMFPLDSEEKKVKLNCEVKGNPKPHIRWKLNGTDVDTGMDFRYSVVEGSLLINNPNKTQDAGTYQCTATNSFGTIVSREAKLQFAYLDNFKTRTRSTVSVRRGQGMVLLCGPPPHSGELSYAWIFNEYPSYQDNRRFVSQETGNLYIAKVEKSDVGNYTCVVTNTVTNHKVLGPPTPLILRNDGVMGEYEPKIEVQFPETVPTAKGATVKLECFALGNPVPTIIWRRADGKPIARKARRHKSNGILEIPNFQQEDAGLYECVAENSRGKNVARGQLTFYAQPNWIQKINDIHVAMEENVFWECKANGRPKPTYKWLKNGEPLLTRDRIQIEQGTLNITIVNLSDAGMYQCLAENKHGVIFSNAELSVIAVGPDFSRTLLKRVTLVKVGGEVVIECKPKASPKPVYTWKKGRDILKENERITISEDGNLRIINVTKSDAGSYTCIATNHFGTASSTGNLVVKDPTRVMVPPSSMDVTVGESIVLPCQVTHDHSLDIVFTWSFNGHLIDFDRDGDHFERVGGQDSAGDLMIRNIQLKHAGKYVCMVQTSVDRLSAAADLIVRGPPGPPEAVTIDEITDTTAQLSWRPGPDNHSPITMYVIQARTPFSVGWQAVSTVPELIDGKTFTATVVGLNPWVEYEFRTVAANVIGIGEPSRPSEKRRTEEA
Protocol: as §1, §2

[6] = molecular target: T6, Human CNTN4 domain sample D1-8 (human, UniProt Q8IWV2 19-799, limits assumed)
T6 construct: domain: Domain 1 to Domain 8
T6 sequence (looked up): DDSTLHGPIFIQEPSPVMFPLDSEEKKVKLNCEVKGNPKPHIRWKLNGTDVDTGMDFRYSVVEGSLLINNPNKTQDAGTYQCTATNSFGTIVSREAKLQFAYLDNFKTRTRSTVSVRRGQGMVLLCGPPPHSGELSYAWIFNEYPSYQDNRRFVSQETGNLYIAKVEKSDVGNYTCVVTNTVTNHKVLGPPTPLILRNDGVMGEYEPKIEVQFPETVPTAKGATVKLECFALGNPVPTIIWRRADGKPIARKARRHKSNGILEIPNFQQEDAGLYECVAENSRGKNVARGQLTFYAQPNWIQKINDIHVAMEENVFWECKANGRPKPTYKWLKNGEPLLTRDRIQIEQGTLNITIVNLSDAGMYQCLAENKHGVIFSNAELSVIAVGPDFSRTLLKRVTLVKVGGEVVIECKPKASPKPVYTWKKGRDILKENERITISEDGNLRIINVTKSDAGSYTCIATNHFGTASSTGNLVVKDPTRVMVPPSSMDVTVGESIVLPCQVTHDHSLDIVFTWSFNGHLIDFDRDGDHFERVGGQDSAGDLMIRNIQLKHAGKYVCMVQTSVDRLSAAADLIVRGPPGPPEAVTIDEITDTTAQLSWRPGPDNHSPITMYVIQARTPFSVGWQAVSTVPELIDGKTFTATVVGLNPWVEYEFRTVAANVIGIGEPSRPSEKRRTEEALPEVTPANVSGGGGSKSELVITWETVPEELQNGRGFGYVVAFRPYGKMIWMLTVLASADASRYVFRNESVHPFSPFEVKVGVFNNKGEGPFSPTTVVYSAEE
Protocol: as §1, §2

[7] = molecular target: T7, Human CNTN4 domain sample D1-9 (human, UniProt Q8IWV2 19-899, limits assumed)
T7 construct: domain: Domain 1 to Domain 9
T7 sequence (looked up): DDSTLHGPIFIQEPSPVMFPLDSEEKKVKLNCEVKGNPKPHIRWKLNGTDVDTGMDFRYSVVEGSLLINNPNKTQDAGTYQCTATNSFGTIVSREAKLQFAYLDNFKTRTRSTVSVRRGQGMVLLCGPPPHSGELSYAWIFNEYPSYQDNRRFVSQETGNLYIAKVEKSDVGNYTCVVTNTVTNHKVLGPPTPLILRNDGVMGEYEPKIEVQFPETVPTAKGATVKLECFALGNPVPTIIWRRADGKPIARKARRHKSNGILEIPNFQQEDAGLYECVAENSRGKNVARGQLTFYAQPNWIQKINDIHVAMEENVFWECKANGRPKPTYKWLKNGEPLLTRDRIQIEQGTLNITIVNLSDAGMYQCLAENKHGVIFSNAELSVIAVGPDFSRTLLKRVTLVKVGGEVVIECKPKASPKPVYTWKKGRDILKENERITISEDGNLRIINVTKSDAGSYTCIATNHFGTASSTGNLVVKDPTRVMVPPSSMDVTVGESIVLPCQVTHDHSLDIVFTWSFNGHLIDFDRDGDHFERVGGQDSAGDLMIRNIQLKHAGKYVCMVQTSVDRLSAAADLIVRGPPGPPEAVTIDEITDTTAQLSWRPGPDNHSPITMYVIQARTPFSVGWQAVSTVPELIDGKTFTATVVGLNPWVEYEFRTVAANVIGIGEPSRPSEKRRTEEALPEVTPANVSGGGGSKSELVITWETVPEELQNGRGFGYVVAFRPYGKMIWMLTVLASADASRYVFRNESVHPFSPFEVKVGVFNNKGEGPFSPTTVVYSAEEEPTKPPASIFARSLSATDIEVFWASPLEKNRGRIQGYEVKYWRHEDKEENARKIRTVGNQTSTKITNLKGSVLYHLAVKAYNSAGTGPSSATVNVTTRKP
Protocol: as §1, §2

Measured: binding result

B1: Anti-CNTN4 chicken-human chimeric IgG4 antibody AB1 (antibody, V domains shown)
VH: AVTLDESEGGLQTPGGALSLVCKASGFTFSSFNMFWVRQAPGKGLEYVAEISGGGGSTWYAPAVKGRATISRDNGQSTVRLQLNNLRAEDTGTYYCAKSADTWSYGAATIDAWGHGTEVIVSS
VL: ALTQPSSVSANLGETVKITCSGSSGSYGWYQQKSPGSAPVTLIYDNTNRPSDIPSRFSGSGSGSTGTLTITGVRAEDEAVYYCGGYDGSTDVFGAGTTLTVL
notes: Chicken variable domains of scFv AB1 on human IgG4 constant regions; It was purified on Kappa select resin, so the light chain is kappa; also called anti-CNTN4 antibody AB1; Anti-CNTN4 129 chimeric IgG4 antibody
binds: [1] | [6] | [7]
no binding: all other assays above
